From patent publication US20200165312A1, “COSMETIC COMPOSITION FOR IMPROVING SKIN CONDITIONS COMPRISING FUSION PROTEIN INCLUDING SKIN PENETRATION ENHANCING PEPTIDE” (LG HOUSEHOLD & HEALTH CARE LTD., priority 2017, published 2020)

Tests used:
dermal fibroblasts = experiment: Hyaluronic acid (HA) production in dermal fibroblasts (ELISA); assay type: cell-based, human; settings: two days
Description: (§1) Specifically, dermal fibroblasts were inoculated onto a 24-well plate and cultured for 24 hours to obtain cultures having a saturation degree of 70 to 80%. The cultures were washed with PBS and cultured in a serum-free DMEM medium including 10 ng/mL T-PDGFa or PDGFa for two days. A supernatant was obtained therefrom and the amount of hyaluronic acid (HA) produced and released in the culture solution was quantitively analyzed using an ELISA kit (R&D Systems) (Table 5).
as §1, with “The cultures were washed with PBS and cultured in a serum-free DMEM medium including 10 ng/mL T-PDGFa or PDGFa for two days.” left out, “9).” for “5).”

[1] = system: human umbilical vein endothelial cells; experiment: Endothelial cell proliferation, Cell Counter Kit-8; assay type: cell-based
Description: Specifically, human umbilical vein endothelial cells were inoculated onto a 96-well plate and cultured for 24 hours to obtain cultures at a density of 5,000 cells per well. The cultures were washed with PBS and cultured in a serum-free M199 medium for 16 hours. […] The cultures were obtained therefrom and a difference between proliferated amounts of cells was quantitively analyzed using the Cell Counter Kit-8 (Dojindo).
Specifically, human umbilical vein endothelial cells were inoculated onto a 96-well plate and cultured for 24 hours to obtain cultures at a density of 5,000 cells per well. The cultures were washed with PBS and cultured in a serum-free M199 medium for 16 hours. The cells were washed with PBS again and cultured in a serum-free M199 medium supplemented with 100 ng/mL T-Tβ4 or Tβ4 for one day. The cultures were obtained therefrom and a difference between proliferated amounts of cells was quantitively analyzed using the Cell Counter Kit-8 (Dojindo). Here, human umbilical vein endothelial cells cultured in a serum-free M199 medium without T-Tβ4 or Tβ4 were used as a control (Table 22).

[2] = Skin retentivity of growth factor fusion proteins (porcine skin disrupted, ELISA); assay type: in vitro ADME; settings: for Remaining amount (%): skin after 16 hours penetration test; for skin retentivity higher than the unfused protein: summary of Tables 8, 13, 17, 21, 25
Description: (§2) Specifically, the porcine skin remained after the experiment of Example 3-2-4 was recovered, frozen in liquid nitrogen, and disrupted. An amount of PDGFa or T-PDGFa contained therein was quantitatively analyzed using the ELISA kit (R&D Systems). In addition, a relative amount of T-PDGFa to PDGFa was calculated as a remaining amount (Table 8).
Specifically, the porcine skin remained after the experiment of Example 3-3-4 was recovered, frozen in liquid nitrogen, and disrupted. An amount of VEGF or T-VEGF contained therein was quantitatively analyzed using the ELISA kit (R&D Systems).
as §2, with “3-4-4” for “3-2-4”, “IGF-1” for “PDGFa”, “T-IGF-1” for “T-PDGFa”, “17).” for “8).”
as §2, with “3-5-3” for “3-2-4”, “KGF” for “PDGFa”, “T-KGF” for “T-PDGFa”, “21).” for “8).”
as §2, with “3-6-3” for “3-2-4”, “Tβ4” for “PDGFa”, “T-Tβ4” for “T-PDGFa”, “25).” for “8).”

skin keratinocytes = experiment: Keratinocyte growth (skin barrier strengthening), Cell Counter Kit-8; assay type: cell-based; settings: for Production (%) (keratinocyte growth): 100 ng/mL T-KGF or KGF, one day, control = 100
Description: (§3) Specifically, skin keratinocytes were cultured in a 96-well plate for one day to obtain cultures at a density of 6,000 cells per well. The cultures were washed with PBS and cultured in a serum-free DMEM medium for one day. The cells were washed with PBS again and cultured in a serum-free DMEM medium supplemented with 100 ng/mL T-IGF-1 or IGF-1 for one day. The cultures were obtained therefrom and a difference between proliferated amounts of cells was quantitively analyzed using the Cell Counter Kit-8 (Dojindo). Here, skin keratinocytes cultured in a serum-free DMEM medium without T-IGF-1 or IGF-1 were used as a control (Table 14).
Specifically, skin keratinocytes were cultured in a 96-well plate for 24 hours to obtain cultures at a density of 6,000 cells per well.
as §3, with “The” for “Specifically, skin keratinocytes were cultured in a 96-well plate for one day to obtain cultures at a density of 6,000 cells per well. The”, “T-KGF” for “T-IGF-1”, “KGF” for “IGF-1”, “18).” for “14).”

Molecule	Production (%) of hyaluronic acid (HA) (dermal fibroblasts; 10 ng/mL T-VEGF or VEGF, control = 100) [%]	hyaluronic acid producing effect compared with the unfused protein (dermal fibroblasts; 10 ng/mL)	Proliferation (%) ([1]; 100 ng/mL T-VEGF or VEGF, serum-free M199, one day, control = 100)	cell proliferation effect compared with the unfused protein ([1]; human umbilical vein endothelial cells, 100 ng/mL)	Remaining amount (%) ([2]; relative to VEGF)	skin retentivity higher than the unfused protein [2]	Production (%) (keratinocyte growth) (skin keratinocytes)	effect in keratinocyte growth test compared with the unfused protein (skin keratinocytes; skin keratinocytes, 100 ng/mL)	Remaining amount (%) ([2]; relative to KGF)
T-VEGF: SEQ ID NO: 1 peptide C-terminal linked to N-terminal of VEGF via GG linker (protein, Synthetic Fusion protein of T-VEGF) NGSLNTHLAPILGGAPMAEGGGQNHHEVVKFMDVYQRSYCHPIETLVDIFQEYPDEIEYIFKPSCVPLMRCGGCCNDEGLECVPTEESNITMQIMRIKPHQGQHIGEMSFLQHNKCECRPKKDRARQENPCGPCSERRKHLFVQDPQTCKCSCKNTDSRCKARQLELNERTCRCDKPRR	230 ± 18	same level	185 ± 15	same level	9,800 ± 790%	about 100 times			
T-KGF: SEQ ID NO: 1 peptide C-terminal linked to N-terminal of KGF via GG linker (protein, Synthetic Fusion protein of T-KGF) NGSLNTHLAPILGGCNDMTPEQMATNVNCSSPERHTRSYDYMEGGDIRVRRLFCRTQWYLRIDKRGKVKGTQEMKNNYNIMEIRTVAVGIVAIKGVESEFYLAMNKEGKLYAKKECNEDCNFKELILENHYNTYASAKWTHNGGEMFVALNQKGIPVRGKKTKKEQKTAHFLPMAIT						about 100 times	590 ± 27	same level	9,700 ± 850%
KGF: keratinocyte growth factor having an amino acid sequence of SEQ ID NO: 44 (protein, Human KGF) CNDMTPEQMATNVNCSSPERHTRSYDYMEGGDIRVRRLFCRTQWYLRIDKRGKVKGTQEMKNNYNIMEIRTVAVGIVAIKGVESEFYLAMNKEGKLYAKKECNEDCNFKELILENHYNTYASAKWTHNGGEMFVALNQKGIPVRGKKTKKEQKTAHFLPMAIT							620 ± 25		100 ± 17%
